Measured values from paper PMC5773207.
“And” between values parts separate entries of the source, which are not always exact repeats. Equal entries are not always repeated.

Target: Nogo-B receptor construct NgBR(79–293) (human) (UniProt Q96E22)
Assay: SEC; size exclusion (Superdex 200 10/300 GL) in-line with synchrotron SAXS; 20 mg/mL NgBR(79-293), 20 mM HEPES pH 7.5, 150 mM NaCl, 5% glycerol, 1 mM TCEP, 25°C

Nogo-B receptor construct NgBR(79–293) (from UniProt Q96E22 79-293) (domain or fragment)
stoichiometry N: 2 and 4
